Measurements as given in US20060062761A1.

Experiments:
Test in all cases: competition
Conditions in all cases: modification not given
[1] = molecular target: HLA-DR DRB1*0701 on fixed MOU (MANN) cells (human)
[2] = molecular target: HLA-DR DRB1*0101 on fixed HOM-2 cells (human)
[3] = molecular target: HLA-DR DRB1*0401 on fixed WT-51 cells (human)

Row | Binder | IC50 [1] | IC50 [2] | IC50 [3]
1 | SILAVRKYFQRITLY [39] | 60 µM | 100 µM | 
2 | LKEKKYSPCAWEVVR [44] | > 500 µM |  | 
3 | TLYLKEKKYSPCAWE [43] | > 500 µM |  | 
4 | VVRAEIMRSFSLSTN [48] | 7 µM | 25 µM | 
5 | KKYSPCAWEVVRAEI [45] | 200 µM |  | 
6 | KDRHDFGFPQEEFGN [11] | > 500 µM |  | 
7 | QEEFGNQFQKAETIP [14] | > 500 µM |  | 
8 | RRISLFSCLKDRHDF [8] |  | 180 µM | 
9 | QQIFNLFSTKDSSAA [21] |  |  | 70 µM
10 | SCLKDRHDFGFPQEE [10] | > 500 µM |  | 
11 | GFPQEEFGNQFQKAE [13] | > 500 µM |  | 
12 | PLMKEDSILAVRKYF [37] | > 500 µM | 85 µM | 
13 | VGVTETPLMKEDSIL [35] | > 500 µM | > 500 µM | 
14 | YTELYQQLNDLEACV [29] |  |  | 5 µM
15 | AEIMRSFSLSTNLQE [49] | 15 µM | 15 µM | 
16 | AVRKYFQRITLYLKE [40] | 70 µM | 95 µM | 
17 | SLFSCLKDRHDFGFP [9] | > 500 µM |  | 
18 | TETPLMKEDSILAVR [36] | > 500 µM | 25 µM | 
19 | IQGVGVTETPLMKED [34] | > 500 µM | > 500 µM | 
20 | AQMRRISLFSCLKDR [7] |  | 150 µM | 
21 | SPCAWEVVRAEIMRS [46] | 8 µM |  | 
22 | HDFGFPQEEFGNQFQ [12] | > 500 µM |  | 
23 | KEDSILAVRKYFQRI [38] | > 500 µM | > 500 µM | 
24 | FGNQFQKAETIPVLH [15] | 25 µM |  | 
25 | FNLFSTKDSSAAWDE [22] |  |  | > 500 µM
26 | QFQKAETIPVLHEMI [16] |  | 350 µM | 
27 | KDSSAAWDETLLDKF [24] |  |  | 450 µM
